Assay results: PMC7116876, “Mechanistic Insights into Regulation of the ALC1 Remodeler by the Nucleosome Acidic Patch” (Cell reports, 2020)

System: sites of DNA damage in U2OS cells
Assay: Recruitment of YFP-ALC1 to DNA breaks upon laser damage
Assay type: cell-based, Homo sapiens
Settings: YFP-ALC1 R860W background, 405 nm laser damage
Experimental: U2OS Flp-In T-REx cells were a kind gift from Durocher lab and maintained in DMEM medium (GIBCO/Thermo Fisher) supplemented with 10% FBS and Pen/Strep with 15.5 μg/ml zeocin (Invitrogen) and 4 μg/ml blasticidin. CRISPR inactivation of ALC1 was carried out in Flp-In T-REx U2OS cells by transiently expressing Cas9 and gRNA targeting Exon3 of ALC1 F-oligo: CACCGCAG GAAGATTAAATGATGAA R-oligo: […] with px459 (addgene) ([Ran et al., 2013]). Single cell clones were grown by limiting dilution and then screened for ALC1 expression by western blot. […]
Cells were seeded on 8 well Lab-Tek chamber slides (Thermo Fisher Scientific). […] In order to monitor the association kineticsof YFP-tagged ALC1 at sites of laser micro-irradiation, the time evolution of YFP fluorescence in the damaged region of interest was recorded upon excitation with a 488 nm laser. Recruitment of YFP to bleached ROIs was analyzed in FIJI ([Schindelin et al., 2012]) and data were processed in R. In brief, nuclear masks were segmented by local thresholding. […] In order to quantify recruitment, the mean YFP fluorescence intensities at a given time point t (It) were normalized to the mean initial fluorescence intensities I0 of the same region of interest. Normalized intensities were additionally multiplied with BGI0/BGIt to correct for photobleaching, where BGI represents the background fluorescence intensity. […]

B1: R611A/S612A: YFP-ALC1 with R611A/S612A linker mutation and R860W, expressed in U2OS cells (protein, UniProt Q86WJ1 1-897, looked up, variant R611A S612A R860W)
Chromodomain-helicase-DNA-bind …: MERAGATSRGGQAPGFLLRLHTEGRAEAARVQEQDLRQWGLTGIHLRSYQLEGVNWLAQRFHCQNGCILGDEMGLGKTCQTIALFIYLAGRLNDEGPFLILCPLSVLSNWKEEMQRFAPGLSCVTYAGDKEERACLQQDLKQESRFHVLLTTYEICLKDASFLKSFPWSVLVVDEAHRLKNQSSLLHKTLSEFSVVFSLLLTGTPIQNSLQELYSLLSFVEPDLFSKEEVGDFIQRYQDIEKESESASELHKLLQPFLLRRVKAEVATELPKKTEVVIYHGMSALQKKYYKAILMKDLDAFENETAKKVKLQNILSQLRKCVDHPYLFDGVEPEPFEVGDHLTEASGKLHLLDKLLAFLYSGGHRVLLFSQMTQMLDILQDYMDYRGYSYERVDGSVRGEERHLAIKNFGQQPIFVFLLSTRAGGVGMNLTAADTVIFVDSDFNPQNDLQAAARAHRIGQNKSVKVIRLIGRDTVEEIVYRKAASKLQLTNMIIEGGHFTLGAQKPAADADLQLSEILKFGLDKLLASEGSTMDEIDLESILGETKDGQWVSDALPAAEGGSRDQEEGKNHMYLFEGKDYSKEPSKEDRKSFEQLVNLQKTLLEKASQEGAALRNKGSVLIPGLVEGSTKRKRVLSPEELEDRQKKRQEAAAKRRRLIEEKKRQKEEAEHKKKMAWWESNNYQSFCLPSEESEPEDLENGEESSAELDYQDPDATSLKYVSGDVTHPQAGAEDALIVHCVDDSGHWGRGGLFTALEKRSAEPRKIYELAGKMKDLSLGGVLLFPVDDKESRNKGQDLLALIVAQHRDRSNVLSGIKMAALEEGLKKIFLAAKKKKASVHLPRIGHATKGFNWYGTERLIWKHLAARGIPTYIYYFPRSKSAVLHSQSSSSSSRQLVP
modifications: YFP fusion
notes: YFP-ALC1 with R611A/S612A linker mutation and R860W, expressed in U2OS cells
B1 was tested, and the “overall extent of ALC1 recruitment to sites of DNA damage” value (n ≥ 131 traces from 3 independent experiments) was “notably compromised the overall extent of ALC1 recruitment” and the “recruitment kinetics at sites of DNA damage” value (single-exponential half times, n ≥ 131 traces) was “only modestly delayed recruitment kinetics”.
